Where “and” joins values, the source holds several entries; their conditions need not be identical. Identical values can stand only once.
Columns and labels:
[1] = target: Concanavalin A (Canavalia ensiformis, UniProt P02866); test: binding to and glucose elution from columns of immobilized Concanavalin A; set-up: species or system Jack Bean
Experimental: At the point indicated by the arrow, 0.2 M glucose in the column buffer was begun. Fractions (2.0 ml) were collected at a flow rate of 10-15 ml/h.
Displacement of hormone was accomplished using 1.0 ml pulses of column buffer containing varying amounts of glucose. Glucose content is indicated over the appropriate arrows. Fractions (1.7 ml) were collected at a flow rate of 10-15 ml/h.

[2] = tested on: blood glucose; test: blood-glucose depression assay modified from the U.S. Pharmacopeia; conditions: individual animals A-F; overnight fast; 0.1mg protein/100gm body weight subcutaneous; 60 minutes after injection; each animal its own control
Experimental: The conjugate prepared in I was tested using the blood-glucose depression assay modified from the U.S. Pharmoacopeia (Vol. XVIII, 883-884 (1967)).
*After an overnight fast, each animal received 0.1mg protein/100gm body
weight by subcutaneous injection. Each of the animals served as its own
control, receiving the maltoseinsulin derivative on day 1, and control
insulin on day 2. Blood glucose depression was determined 60 minutes afte
injection using a Beckman Glucose Analyzer 2.

## insulin [Control insulin]
[1]; 20 mg applied to column, buffer wash, 25 mM sodium phosphate pH 7.4
  binding to immobilized Concanavalin A: did not bind to Concanavalin A
[1]; 0.2 M glucose in column buffer, 1,000:1 molar excess of glucose
  elution from Concanavalin A by glucose: none was eluted by the addition of glucose
[2]
  BLOOD GLUCOSE DEPRESSION: 75 mg % and 70 mg % and 79 mg % and 64 mg % and 73 mg %

From patent US4348387A, “Method and system for the controlled release of biologically active substances to a body fluid” (The Rockefeller University, priority 1979, dated 1982)
